Experimental data: patent publication US20060051737A1 (ROCKEFELLER UNIVERSITY, published 2006)

B1: Rap1 (other, human, UniProt Q9NYB0 2-399, looked up)
chain: AEAMDLGKDPNGPTHSSTLFVRDDGSSMSFYVRPSPAKRRLSTLILHGGGTVCRVQEPGAVLLAQPGEALAEASGDFISTQYILDCVERNERLELEAYRLGPASAADTGSEAKPGALAEGAAEPEPQRHAGRIAFTDADDVAILTYVKENARSPSSVTGNALWKAMEKSSLTQHSWQSLKDRYLKHLRGQEHKYLLGDAPVSPSSQKLKRKAEEDPEAADSGEPQNKRTPDLPEEEYVKEEIQENEEAVKKMLVEATREFEEVVVDESPPDFEIHITMCDDDPPTPEEDSETQPDEEEEEEEEKVSQPEVGAAIKIIRQLMEKFNLDLSTVTQAFLKNSGELEATSAFLASGQRADGYPIWSRQDDIDLQKDDEDTREALVKKFGAQNVARRIEFRKK
notes: also called human Rap1
B2: TRF1 (other, human, UniProt P54274 2-439, looked up)
chain: AEDVSSAAPSPRGCADGRDADPTEEQMAETERNDEEQFECQELLECQVQVGAPEEEEEEEEDAGLVAEAEAVAAGWMLDFLCLSLCRAFRDGRSEDFRRTRNSAEAIIHGLSSLTACQLRTIYICQFLTRIAAGKTLDAQFENDERITPLESALMIWGSIEKEHDKLHEEIQNLIKIQAIAVCMENGNFKEAEEVFERIFGDPNSHMPFKSKLLMIISQKDTFHSFFQHFSYNHMMEKIKSYVNYVLSEKSSTFLMKAAAKVVESKRTRTITSQDKPSGNDVEMETEANLDTRKSVSDKQSAVTESSEGTVSLLRSHKNLFLSKLQHGTQQQDLNKKERRVGTPQSTKKKKESRRATESRIPVSKSQPVTPEKHRARKRQAWLWEEDKNLRSGVRKYGEGNWSKILLHYKFNNRTSVMLKDRWRTMKKLKLISSDSED
B3: TRF2 (other, human, UniProt Q15554 1-542, looked up)
chain: MAAGAGTAGPASGPGVVRDPAASQPRKRPGREGGEGARRSDTMAGGGGSSDGSGRAAGRRASRSSGRARRGRHEPGLGGPAERGAGEARLEEAVNRWVLKFYFHEALRAFRGSRYGDFRQIRDIMQALLVRPLGKEHTVSRLLRVMQCLSRIEEGENLDCSFDMEAELTPLESAINVLEMIKTEFTLTEAVVESSRKLVKEAAVIICIKNKEFEKASKILKKHMSKDPTTQKLRNDLLNIIREKNLAHPVIQNFSYETFQQKMLRFLESHLDDAEPYLLTMAKKALKSESAASSTGKEDKQPAPGPVEKPPREPARQLRNPPTTIGMMTLKAAFKTLSGAQDSEAAFAKLDQKDLVLPTQALPASPALKNKRPRKDENESSAPADGEGGSELQPKNKRMTISRLVLEEDSQSTEPSAGLNSSQEAASAPPSKPTVLNQPLPGEKNPKVPKGKWNSSNGVEEKETWVEEDELFQVQAAPDEDSTTNITKKQKWTVEESEWVKAGVQKYGEGNWAAISKNYPFVNRTAVMIKDRWRTMKRLGMN

Each binder was assayed against T1, human Rif1 (human, UniProt Q5UIP0 1-2472) (assay: co-immunoprecipitation).
T1 construct: Endogenous protein in extracts or fixed cells of human cell lines (e.g. HeLa); It is seen as a >250 kDa polypeptide; the predicted protein has 2472 amino acids and 274 kDa; also called hRif1
T1 sequence (Q5UIP0 other isoform, or with tags, fused parts or gaps limits assumed): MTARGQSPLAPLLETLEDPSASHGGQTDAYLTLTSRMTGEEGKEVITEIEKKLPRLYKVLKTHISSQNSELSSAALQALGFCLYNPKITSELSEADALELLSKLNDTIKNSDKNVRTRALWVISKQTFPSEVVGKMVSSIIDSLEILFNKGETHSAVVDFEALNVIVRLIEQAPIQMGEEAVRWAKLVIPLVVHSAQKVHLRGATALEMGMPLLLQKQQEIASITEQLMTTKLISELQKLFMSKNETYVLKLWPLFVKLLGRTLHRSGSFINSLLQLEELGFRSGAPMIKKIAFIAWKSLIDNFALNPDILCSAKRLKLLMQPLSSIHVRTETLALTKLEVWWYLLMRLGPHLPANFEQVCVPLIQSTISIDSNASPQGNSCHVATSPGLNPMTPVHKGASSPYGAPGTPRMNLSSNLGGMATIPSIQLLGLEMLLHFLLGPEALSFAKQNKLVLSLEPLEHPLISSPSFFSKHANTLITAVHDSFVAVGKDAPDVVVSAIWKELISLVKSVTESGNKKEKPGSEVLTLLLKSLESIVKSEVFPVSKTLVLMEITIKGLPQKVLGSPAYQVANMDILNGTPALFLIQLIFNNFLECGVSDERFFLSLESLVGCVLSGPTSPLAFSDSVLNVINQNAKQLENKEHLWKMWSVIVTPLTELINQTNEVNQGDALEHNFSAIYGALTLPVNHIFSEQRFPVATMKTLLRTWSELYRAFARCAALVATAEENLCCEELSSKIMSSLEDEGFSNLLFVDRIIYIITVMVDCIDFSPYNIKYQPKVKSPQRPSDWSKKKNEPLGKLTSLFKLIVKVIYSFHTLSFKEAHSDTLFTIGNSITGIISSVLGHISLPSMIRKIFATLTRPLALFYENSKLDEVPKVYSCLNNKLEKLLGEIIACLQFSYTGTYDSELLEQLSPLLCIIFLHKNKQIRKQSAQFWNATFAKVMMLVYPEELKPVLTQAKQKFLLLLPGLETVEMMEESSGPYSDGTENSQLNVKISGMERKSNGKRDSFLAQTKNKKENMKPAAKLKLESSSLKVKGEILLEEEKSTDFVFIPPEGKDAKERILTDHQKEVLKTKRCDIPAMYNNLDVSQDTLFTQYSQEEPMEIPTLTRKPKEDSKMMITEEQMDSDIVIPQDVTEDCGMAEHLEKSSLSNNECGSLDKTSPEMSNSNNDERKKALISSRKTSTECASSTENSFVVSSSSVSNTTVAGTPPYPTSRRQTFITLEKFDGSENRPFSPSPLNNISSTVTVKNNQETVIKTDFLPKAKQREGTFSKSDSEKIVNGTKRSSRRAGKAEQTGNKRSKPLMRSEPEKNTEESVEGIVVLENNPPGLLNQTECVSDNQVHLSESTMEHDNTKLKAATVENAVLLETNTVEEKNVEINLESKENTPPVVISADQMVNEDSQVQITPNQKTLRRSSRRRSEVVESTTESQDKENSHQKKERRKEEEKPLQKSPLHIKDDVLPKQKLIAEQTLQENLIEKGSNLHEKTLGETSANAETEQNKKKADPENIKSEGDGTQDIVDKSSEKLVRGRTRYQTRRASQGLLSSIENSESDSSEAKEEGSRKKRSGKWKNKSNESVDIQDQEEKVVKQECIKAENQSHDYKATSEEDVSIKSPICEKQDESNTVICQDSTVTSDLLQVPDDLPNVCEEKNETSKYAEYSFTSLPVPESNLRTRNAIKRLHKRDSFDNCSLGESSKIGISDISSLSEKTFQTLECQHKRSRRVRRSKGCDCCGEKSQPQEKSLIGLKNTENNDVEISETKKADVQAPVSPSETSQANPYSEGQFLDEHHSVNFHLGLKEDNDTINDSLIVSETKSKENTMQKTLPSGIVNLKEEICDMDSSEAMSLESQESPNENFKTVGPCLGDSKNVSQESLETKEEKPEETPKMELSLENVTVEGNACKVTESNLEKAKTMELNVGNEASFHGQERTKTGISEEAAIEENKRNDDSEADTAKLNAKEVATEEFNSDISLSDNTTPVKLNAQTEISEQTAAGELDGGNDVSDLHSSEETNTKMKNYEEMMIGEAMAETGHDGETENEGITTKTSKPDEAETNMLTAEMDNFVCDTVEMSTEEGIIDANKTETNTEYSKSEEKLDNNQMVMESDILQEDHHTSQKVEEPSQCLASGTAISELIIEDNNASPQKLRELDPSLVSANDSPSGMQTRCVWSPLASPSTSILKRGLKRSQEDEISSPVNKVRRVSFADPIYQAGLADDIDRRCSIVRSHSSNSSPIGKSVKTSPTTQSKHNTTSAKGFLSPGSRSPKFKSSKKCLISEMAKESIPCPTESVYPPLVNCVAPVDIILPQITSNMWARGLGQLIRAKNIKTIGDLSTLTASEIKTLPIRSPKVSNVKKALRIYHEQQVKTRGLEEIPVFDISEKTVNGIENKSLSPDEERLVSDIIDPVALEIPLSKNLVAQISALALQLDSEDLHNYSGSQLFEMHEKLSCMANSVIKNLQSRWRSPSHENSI

Binding result, no binding:
B1, B2, B3
